*: point of attachment. sulfate = O=S(=O)(O)*
Tests used:
thrombin [1] = biological target: T1, thrombin (Homo sapiens, UniProt P00734); assay: chromogenic thrombin amidolytic activity assay; assay type: biochemical; details: tight-binding model, Morrison equation; inhibitors expressed in E. coli, sulfotyrosine biosynthesized; read-out: Ki, inhibition of thrombin activity
Description: FIG. 18: Inhibition constants (Ki) of all thrombin inhibitors used in this study: Ki+standard error were calculated based on a tight-binding model, using Morrison equation in Prism. Standard errors were calculated from n=3 independent samples.
To test the thrombin inhibiting activity of the wild type inhibitors and their sulfotyrosine-containing mutants, chromogenic thrombin amidolytic activity assays were performed in the presence of a range of concentrations of each inhibitor. […] Double sulfation of chimadanin at both Tyr28 and Tyr31 further improved its Ki to 0.1 nM, consistent with the madanin-1 study. […] This may be due to the fact that co-translational folding is more efficient than that achieved via chemical synthesis.

thrombin [2] = biological target: T1, thrombin; details: sulfated versus unsulfated hirudin; cited from earlier work
[3] = test system: tyrosine sulfation (sulfotyrosine-containing sfGFP production); assay: green fluorescent protein assay of tyrosine sulfotransferase activity; assay type: cell-based, Escherichia coli; details: BL21(DE3), pBad vector, sfGFP134TAG reporter, LB medium
Description: To explore the activity of these sulfotransferases towards tyrosine, a green fluorescent protein assay was used (Chen et al., 2018; Chen et al., 2019). […] The suppressor plasmid (pUltra-sulfotyrosine) was used to suppress the amber codon (Asp134TAG) within a sfGFP variant encoded by the pLei-sfGFP134TAG plasmid in the presence of sulfotyrosine. Expression of full-length sfGFP was carried out in LB medium for 16 hours in parallel with controls BL21(DE3) harboring pUltra-sulfotyrosine, pLei-sfGFP134TAG and pBad-Empty in the presence and absence of exogenously fed 1 mM sulfotyrosine.

B1: wildtype chimadanin: thrombin inhibitor from the salivary gland of Haemaphysalis longicornis, His-tagged, expressed in E. coli; Table 1 sequence names seem swapped (protein)
chain: MQPKEKTKGVEVEGNPATLISARQMDVSYDEYEDNGPDVIPGEPAKPRGGPKNGAASGKFDQIPDFSSESHHHHHHH
Ki (thrombin [1]): 12.9 nM

B2: hirudin: thrombin inhibitor; tyrosine-sulfated form compared with unsulfated; SEQ ID NO: 109 in Table 1 (protein, listed as Hirudo medicinalis)
chain: MKKNIAFLLASMFVFSIATNAYAMRYTACTESGQNQCICEGNDVCGQGRNCQFDSSGKKCVEGEGTRKPQNEGQHDFDPIPEEYLSHHHHHH
modifications: tyrosine sulfation
increase of affinity for thrombin by tyrosine sulfation (thrombin [2]): more than 10 fold

B3: A0A091VQH7: putative sulfotransferase from Nipponia nippon, SEQ ID NO: 1 (protein)
chain: IALDKMEDLSLKETVVSRAEICEVEGIPFTKPICSTWDQVWKFKARPDDLLIATYTKAGTTWTQEIVDMIQQNGDVEKCRRATTYRRHPFLEWSIQEPPAASYSGLELAEAMPSPRTIKTHLPVQLLPPSFWEQNCKIIYVARNAKDNLVSYYHFHRMSKEMPDPGTWEEFMEKFMTGKVLWGSWYDHVKGWWKAKDRHRILYLFYEDMKENPKQEIQKILKFLEKDVNQEVLNKILHNTSFEIMKDNPMTNYTTEFQGIMDHSISPFMRKGVVGDWKNYFTVAQNEKFDEDYKKKMADTSLVFRTEL
modifications: Nipponia nippon
increase in fluorescence compared to cells not given exogenous sulfotyrosine [3]: 2.5 fold

B4: Madanin-1 sulfated at both Tyr32 and Tyr35 (protein)
chain: MYPERDSAKEGNQEQERALHVKVQKRTDGDADY(sulfate)DEY(sulfate)EEDGTTPTPDPTAPTAKPRLRGNKPHHHHHH
Ki (thrombin [1]): 0.5 nM

From patent US20240344040A1, “PROKARYOTIC AND EUKARYOTIC CELLS WITH BIOSYNTHESIZED SULFOTYROSINE FOR GENETIC INCORPORATION” (William Marsh Rice University, priority 2023, published 2024)
